What all share (experiment): flow cytometry on Ba/F3 cells expressing the truncated PODXL2
In general terms: Flow cytometry measures light scatter and fluorescence of single cells or particles in a stream.

For assay [1], the target named is T1, PODXL2, positions 1 to 340 (human, UniProt O00592 23-372).
T1 construct: One of the 14 C-terminal truncations; Expressed on Ba/F3 cells; also called R340
T1 sequence: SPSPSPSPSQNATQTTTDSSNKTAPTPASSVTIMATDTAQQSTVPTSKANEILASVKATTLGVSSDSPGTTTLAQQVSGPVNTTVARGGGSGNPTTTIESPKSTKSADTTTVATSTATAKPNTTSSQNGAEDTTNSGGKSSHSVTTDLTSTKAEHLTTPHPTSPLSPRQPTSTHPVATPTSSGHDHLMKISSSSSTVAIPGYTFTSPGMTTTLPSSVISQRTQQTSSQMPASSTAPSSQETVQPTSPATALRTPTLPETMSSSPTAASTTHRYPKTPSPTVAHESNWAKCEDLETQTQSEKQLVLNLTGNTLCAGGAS
The method, then: (§1) To each sample of the cell suspension, 50 μl of the hybridoma culture supernatant or 2-μg/ml of the purified antibody (hereinafter, referred to as an “antibody solution”) was added, and the antibody was reacted with the cells. As an isotype control of the antibody solution, a wash buffer containing 2 μg/ml of each of mouse IgG1 (BioLegend, 400412), mouse IgG2a (BioLegend, 400224), and mouse IgG2b (BioLegend, 400324) was used. The hybridoma culture supernatant was reacted with the target cells at room temperature for 30 minutes, followed by centrifugation at 700×g for 2 minutes. Then, a culture supernatant was removed. Further, 100 μl of a wash buffer was added, followed by centrifugation at 700×g for 2 minutes again. A supernatant was removed. Then, the cells were washed.
(§2) Next, to the cell pellets after the washing, 50 μl of Goat anti-mouse IgG, F(ab′) 2-PE (PE=phycoerythrin, Beckman Coulter, IM0855) diluted 200-fold with a wash buffer was added as a secondary antibody for detection, and reacted in the dark at room temperature for 30 minutes. The reaction was followed by centrifugation at 700×g for 2 minutes. A supernatant was removed. Further, 100 μl of a wash buffer was added, followed by centrifugation at 700×g for 2 minutes again. A supernatant was removed. Then, the cells were washed. Thereafter, the cells were suspended in an appropriate amount of a wash buffer. The reactivity between the antibody and the cells was analyzed by a flow cytometer (Beckman Coulter, FC500 MPL).
(§3) Thereafter, by the same method as in Example 1 (4) (the virus packaging and thereafter), Ba/F3 cells containing the PODXL2 gene sequences of various chain lengths were prepared. Further, by the same method as in Example 4, the reactivity between the ACT36-27_{—}5D1 antibody and the Ba/F3 cells expressing the PODXL2 molecules of various chain lengths was analyzed by a flow cytometer (FIG. 10).

Assay [2] addresses T2, PODXL2, positions 1 to 410 (human, UniProt O00592 23-442).
T2 construct: Encoded as positions 1-410 in pMX-SST and expressed on Ba/F3 cells; The vector-encoded part is not described; also called R410
T2 sequence: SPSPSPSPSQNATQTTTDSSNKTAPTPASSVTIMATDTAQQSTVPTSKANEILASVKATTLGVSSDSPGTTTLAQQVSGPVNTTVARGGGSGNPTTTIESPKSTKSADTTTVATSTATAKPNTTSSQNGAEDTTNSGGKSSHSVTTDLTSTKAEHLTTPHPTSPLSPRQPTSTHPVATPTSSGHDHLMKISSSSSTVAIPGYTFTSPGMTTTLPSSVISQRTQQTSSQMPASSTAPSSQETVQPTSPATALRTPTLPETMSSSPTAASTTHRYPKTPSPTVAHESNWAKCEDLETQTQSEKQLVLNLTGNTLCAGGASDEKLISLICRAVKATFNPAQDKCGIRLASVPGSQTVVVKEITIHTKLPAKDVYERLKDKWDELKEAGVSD
The method, then: as §1, §2, §3

Assay [3] deals with T3, PODXL2, positions 1 to 380 (human, UniProt O00592 23-412).
T3 construct: One of the 14 C-terminal truncations; Expressed on Ba/F3 cells; also called R380
T3 sequence: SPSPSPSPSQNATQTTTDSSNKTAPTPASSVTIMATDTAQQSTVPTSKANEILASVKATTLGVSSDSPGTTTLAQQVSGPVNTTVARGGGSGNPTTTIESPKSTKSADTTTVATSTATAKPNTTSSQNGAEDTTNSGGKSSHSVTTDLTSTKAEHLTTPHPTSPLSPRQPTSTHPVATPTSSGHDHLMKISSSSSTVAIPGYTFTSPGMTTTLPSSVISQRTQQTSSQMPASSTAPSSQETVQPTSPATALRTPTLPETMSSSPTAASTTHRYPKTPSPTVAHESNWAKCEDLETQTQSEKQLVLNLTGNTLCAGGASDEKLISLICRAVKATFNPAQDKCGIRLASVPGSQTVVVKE
How it is done:
as §1, §2, §3

Assay [4] has as its target T4, PODXL2, positions 1 to 370 (human, UniProt O00592 23-402).
T4 construct: One of the 14 C-terminal truncations; Expressed on Ba/F3 cells; also called R370
T4 sequence: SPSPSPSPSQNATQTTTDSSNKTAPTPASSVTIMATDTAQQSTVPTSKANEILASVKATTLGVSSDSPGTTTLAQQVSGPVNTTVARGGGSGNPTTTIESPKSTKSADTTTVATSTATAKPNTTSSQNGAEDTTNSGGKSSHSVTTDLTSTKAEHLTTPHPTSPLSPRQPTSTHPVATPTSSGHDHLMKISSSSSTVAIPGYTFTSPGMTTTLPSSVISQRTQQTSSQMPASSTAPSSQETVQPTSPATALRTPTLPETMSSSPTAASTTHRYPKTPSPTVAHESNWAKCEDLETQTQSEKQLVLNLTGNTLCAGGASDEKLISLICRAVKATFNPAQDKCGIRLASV
How it is done:
as §1, §2, §3

B1: ACT36-27-5D1 antibody (antibody, V domains shown)
VH: EVQLQQSGPELVKPGASVKMSCKASGYTFTSYVMHWVKQKPGQGLEWIGYIHPYNDGIKYNEKFKGKATLTSDKSSSTAYMDLSSLTSEDSAVYYCARSWDWYFDVWAAGTTVTVSS
VL: QIVLTQSPAIMSASPGEKVSMTCSASSSVSYMHWYQQKSGTSPKRWIYDTSKLASGVPARFSGSGSGTSYSLTISSMEAEDAATYYCLQWSSNPPTFGGGTKLE
notes: also called anti-PODXL2 antibody ACT36-27-5D1; anti-ACT36-27-5D1 monoclonal antibody
In the case of B1, the binding result was “no binding” in assay [1], “binds” in assay [2], “no binding” in assay [3] and “no binding” in assay [4].

The record behind these values is patent publication US20120107364A1 (ACTGEN, published 2012).
